How the values were obtained:
Experiment in all cases: single-particle photobleaching
[1] = biological target: K2P3–WT, tandem subunit of K2P3 and wild-type K2P1 (human) (UniProt O14649)
[2] = biological target: K2P9–WT, tandem subunit of K2P9 and wild-type K2P1 (human) (UniProt Q9NPC2)
[3] = biological target: WT–K2P3, tandem subunit of wild-type K2P1 and K2P3 (human) (UniProt O00180)
[4] = biological target: WT–K2P9, tandem subunit of wild-type K2P1 and K2P9 (human) (UniProt O00180)

UniProt O14649, sequence (O14649 whole entry, looked up, tested part not stated): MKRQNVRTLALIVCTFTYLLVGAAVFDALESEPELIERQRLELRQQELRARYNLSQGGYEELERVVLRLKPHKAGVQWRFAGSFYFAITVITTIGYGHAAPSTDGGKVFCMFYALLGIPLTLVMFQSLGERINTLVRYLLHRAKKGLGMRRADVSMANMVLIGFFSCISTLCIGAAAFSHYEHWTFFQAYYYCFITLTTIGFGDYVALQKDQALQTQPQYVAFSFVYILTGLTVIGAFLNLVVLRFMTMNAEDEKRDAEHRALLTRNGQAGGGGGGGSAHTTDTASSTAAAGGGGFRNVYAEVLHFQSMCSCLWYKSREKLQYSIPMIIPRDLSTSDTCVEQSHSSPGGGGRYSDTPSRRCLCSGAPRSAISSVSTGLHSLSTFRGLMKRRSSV
UniProt Q9NPC2, sequence (Q9NPC2 whole entry, looked up, tested part not stated): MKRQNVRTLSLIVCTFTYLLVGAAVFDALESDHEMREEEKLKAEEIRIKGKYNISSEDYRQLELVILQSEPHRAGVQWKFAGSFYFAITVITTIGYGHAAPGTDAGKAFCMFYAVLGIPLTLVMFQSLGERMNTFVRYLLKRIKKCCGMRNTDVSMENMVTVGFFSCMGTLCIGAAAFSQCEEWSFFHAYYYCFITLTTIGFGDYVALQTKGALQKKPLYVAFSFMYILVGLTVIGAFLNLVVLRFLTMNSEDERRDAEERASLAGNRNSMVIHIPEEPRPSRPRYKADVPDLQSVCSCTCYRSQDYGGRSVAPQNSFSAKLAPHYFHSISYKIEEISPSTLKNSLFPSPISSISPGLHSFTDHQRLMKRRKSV

- stoichiometry N (SUMO1 per channel) [1]: 1
- stoichiometry N (SUMO1 per channel) [2]: 1
- stoichiometry N (bleaching step per particle) [3]: 1
- stoichiometry N (bleaching step per particle) [4]: 1
Substance: GFP-SUMO1 (from UniProt P63165 1-97) (natural protein)

— publication PMC3876883
